B1: TPR t1 (parent)
chain: GACCAAUCUGCCCUCAGAGCUCGAGAACAUCUUCGGAUGCAGAGGAGGCAGGCUUCGGUGGCGCGAUAGCGCCAACGUCCUCAACCUCCAAUGCAUCCCACCACAUGAUGAUGCCUGAAGAGCCUUGGUUUUUUG

Variants of: B1
Assay: polymerase ribozyme fitness, log enrichment relative to wild type (log ratio); higher = more active; in vitro selection for triplet polymerase activity
Method in brief: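 To select mutant libraries of each subunit of a heterodimeric triplet polymerase ribozyme, built by PCR and transcribed, each was annealed with a biotinylated primer, partner subunit and triplets, then incubated frozen at −7 °C. Extended constructs were gel-excised, captured on streptavidin beads and amplified by RT-PCR, in one round carried out in triplicate. Illumina sequencing of input and output libraries kept genotypes with ≥10 input reads and ≥1 read per output. Fitness is the base-2 logarithm of genotype enrichment relative to wild-type enrichment, from inverse-variance-weighted replicate averages.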

Variant | polymerase ribozyme fitness (log ratio)
G36A G61U U96G | -1.71
G36U G60C A84C | -1.87
G36A G42U | -2.99
G35C U59G C76A C98A | -5.8
U38G A41U | -2.98
G35U C79A | -6.66
U38A G127A | -2.5
A37C G45U G61C C123A | -3.45
A37U G57A U109G | -5.89
A37C C76G G117C A121C | -5.98
G35U C64G C97G G117C | -7.13
G35U G69A A105C U106A G120U | -6.28
U38G U55G | 0.414
A37U U78C U87C | 0.269
G36U A41U | -2.77
A37U C101A G120A | -0.798
A37U C56G C85U | -1.26
G35U C53U C124G | -4.66
G36C U130G | -1.39
A37C C76G | -0.251
A37C G69A | -3.26

Variant | polymerase ribozyme fitness (log ratio)
U38G C53A U81C C101U C124G | 1
G36U G45C C89U U132A | -2.62
A37G C89A | -2.41
U38G U106A | -1.09
A37U A41U A50C C115U | -4.64
G36A G127U U133G | -3.26
A37G A95C | -1.66
A37C G93A | -0.971
G36U C70G | -4.21
G36U G107C | -5.19
U38G C97U | -4.33
A37U G127U | -1.42
U38G A41U C62U | -3.01
A37U A66C A75U G120C | -1.07
G36A G44A G61U G77U A84U | -3.54
G36C C64U | -1.65
U38G C82G A95G | -2.72
A37C G60A C102A | -3.1
U38A G39A G61U | -1.2
U38A G60U C62A A74U C115G | -6.4
A37G G60C G117A | -1.95

Variant | polymerase ribozyme fitness (log ratio)
G36U U55G A83U G110A U130G | -5.37
A37U G42C | -1.65
G36U G69U A75U | -0.726
G36C C72A G122A | -1.22
G35C G63C | -5.87
A37U C98A | -5.84
G35U G63U C72U | -7.14
G36U C76A C98G U109C C114G | -6.07
U38A C73U | -2.86
G36C C40A C62U C72U | -4.22
G36U C82A G113U | -3.08
G36U A84C C85G C86U | -2.86
A37G C73A U96A | -3.88
U38A C64U U132A | -0.788
U38G G52A G63C | -2.23
U38G G42A C79U | -2.56
A37C G60A C76G | -2.7
G36A A37G C70A | -3.19
G36U C40G | -2.33
G39A C56A U130A U131C | -1.5
A37U C56G C114A | -1.64

Variant | polymerase ribozyme fitness (log ratio)
U38A C49U G110U | -4.28
G36C U78C | -1.49
A37U G47U U54C U78G C85U A119U | -3.1
G36U U81C G107C | -5.8
G36C G65U C72U G107A G117C G128A U133A | -7.08
A37U G48U G57U U129C | -1.96
G36U C88G A91U | -6.86
G36A C72G G110U | -4.37
U38C C56U | -0.488
G36C A37C A41G G61U | -4.4
G36A C64U C88U C101G | -1.84
G36U G120A U126A U132A | -0.708
U38A G71U C80U A95G C124A | -0.159
G36U C56U C97A | -0.495
U38G G52C U55G A74U | -2.31
G36U A37U | -1.98
G36U C64U C115G G117U U132A | -6.32
G36A C86G | -2.04
G36C C70G G110C U129G | -5.33
G35U G36U C124U | -5.29
A37G C64U | -0.479

From the RNAGym collection of RNA variant scans (doi:10.1073/pnas.2313332121)
